Assay results from the Human Domainome abundance scans (Beltran et al. 2025).

B1: Ankyrin repeat and SOCS box protein 14, residues 532 to 572; numbered along this chain, A6NK59 (parent)
chain: RSLKHLCRLKIRKCMGRLHLRCPVFMSFLPLPNRLKAYVLY

Variants of: B1
Experiment: abundance fitness (aPCA) (normalised: wild type 0, dead -1); higher = more abundant; growth selection in yeast, the domain comes from the species named
Conditions: Homo sapiens

Abundance fitness of substitutions, site by site:
L31: E -0.846; A -0.272; V -0.086; P -0.476; S -0.113; K -0.529; M -0.301; Y -0.795; D -0.256; R -0.338; G -0.28; W -0.187; H -0.434; T -0.439; Q -0.656; I -0.006
R34: K -0.166; S -0.218; H -0.455; C -0.204; Q -0.44; W 0.022; M -0.714; T -0.203; E -0.054; Y -0.155; P -0.582; V -0.447; F -0.168; G -0.29; A -0.255; L -0.709
V24: W 0.233; D 0.472; C 0.251; S 0.308; K 0.449; Y -0.166; L -0.081; N 0.316; F 0.469; R 0.352; G 0.319; M -0.217; Q 0.242; T 0.176; E 0.347; P 0.137
P30: S 0.424; V -0.009; T 0.313; I -0.217; A 0.417; G 0.337; R 0.485; L 0.151; F -0.182; Y -0.067; E 0.4; M 0.26; D 0.325; C 0.197
M26: C -0.013; Q -0.154; S 0.018; K -0.026; L 0.078; H 0.113; Y -0.207; G 0.072; E 0.194; A -0.08; R -0.047; W 0.118; I -0.038; P -0.002; D -0.004; T -0.002
H19: T -0.22; Y -0.336; V -0.111; M -0.183; P -0.326; Q -0.004; D -0.272; A 0.171; F -0.097; G 0.024; W -0.053; L 0.069; K 0.141; C -0.236; R 0.018; E -0.24
P23: F 0.078; V 0.384; K 0.524; G 0.198; H -0.306; C 0.28; R 0.357; S 0.273; N -0.049; W 0.321; Q 0.407; E 0.36; Y 0.283; D 0.315; L 0.494; A 0.321; T 0.336; M 0.334
C22: L 0.243; V 0.064; N -0.719; I 0.178; F 0.057; D -1.02; H -0.052; S -0.247; Q -0.521; P -0.086; G -0.339; Y -0.139; E -0.455; R -0.282; M 0.162; W 0.218; K -0.519
L29: A -0.356; G -0.349; T -0.455; S -0.258; P -0.342; E -0.672; D -0.435; M -0.618; F -0.473; V -0.353; I -0.037; Y -0.53; K -0.299
P32: A 0.08; C 0.239; S -0.363; E -1.07; F 0.465; R -0.452; K -0.179; I -0.013; L 0.403; M 0.212; Q -0.587; D -0.998; W 0.552; H -0.47; Y 0.221; G -0.223
F28: V -0.156; Q 0.066; W 0.177; R 0.104; I 0.001; P -0.322; N 0.005; Y -0.01; H 0.199; K 0.221; D -0.056; M -0.127; A -0.228; E 0.27; T -0.237; S -0.05; C -0.198; L 0.128
L35: W 0.044; G -1.13; K -1.29; R -1.28; A -0.466; N -0.729; S -0.66; V -0.103; D -1.24; H -0.955; T -0.966; C -0.135; E -1.12; P -0.913; I -0.18
L18: V -0.392; I 0.248; M -0.071; Q -0.732; G -0.874; C -0.284; E -0.748; F 0.006; N -1.07; T -0.571; K -0.774; R -0.894; A -0.544; S -0.735
L20: C -0.296; D 0.3; V -0.233; Q -0.087; F -0.026; G -0.089; T 0.069; M -0.098; K 0.101; E 0.249; A 0.083; R -0.348; S -0.093; Y -0.655; W -0.285; I -0.308
N33: W -0.528; S 0.105; L -0.432; K -0.222; C -0.151; R 0.044; M -0.629; D 0.057; Y -0.586; G 0.216; I -0.452; A 0.234; Q 0.111; P -0.004; E 0.173; H 0.129
K36: R -0.294; S -0.662; Q -0.374; N -0.932; T -0.423; E -0.732; I -0.274; M -0.398; F -0.022; P -0.725; G -0.599; C -0.398; A -0.382; L -0.242
G16: W -0.058; Q 0.356; E 0.355; K 0.092; H 0.024; N 0.231; P -0.105; D 0.084; T 0.12; R 0.121; L 0.102; F -0.152; C -0.269
R21: Q -0.623; K -0.029; W 0.275; C -0.253; F -0.102; H -0.295; V 0.009; M 0.129; G -0.061; L 0.196; I 0.207; E -0.508; T -0.178; P -0.322; N 0.096; A -0.076; D -0.143; S -0.147
F25: H -0.447; R -0.116; C -0.449; I 0.316; S -0.095; D 0.197; A -0.178; V 0.033; P 0.074; M -0.042; Q -0.123; T -0.243; G -0.048; K 0.089; L 0.19
S27: P -0.386; N 0.019; G -0.075; M -0.892; W -0.156; A -0.059; R 0.042; Q -0.085; V -0.709; C -0.536; T -0.247; D -0.054; Y -1.05; K 0.078; L -1.09; E -0.006
M15: W 0.132; Y -0.701
R17: P -0.06; V 0.213; M 0.079; A 0.371; I -0.203; C 0.153; D -0.07; K 0.046; L 0.17; Q 0.13; G 0.293; Y 0.506; F 0.551; E 0.103; T -0.038; W 0.722; N -0.326; H 0.104; S 0.227
